Reference: paper PMC12319226 (Frontiers in Bioinformatics, 2025)

Columns and labels:
Assay in all cases: BLI
Conditions in all cases: both partners purified
fHbp m001767 = molecular target: T1, fHbp m001767 (Neisseria meningitidis fHbp v3.28, …, point mutant)
T1 chain: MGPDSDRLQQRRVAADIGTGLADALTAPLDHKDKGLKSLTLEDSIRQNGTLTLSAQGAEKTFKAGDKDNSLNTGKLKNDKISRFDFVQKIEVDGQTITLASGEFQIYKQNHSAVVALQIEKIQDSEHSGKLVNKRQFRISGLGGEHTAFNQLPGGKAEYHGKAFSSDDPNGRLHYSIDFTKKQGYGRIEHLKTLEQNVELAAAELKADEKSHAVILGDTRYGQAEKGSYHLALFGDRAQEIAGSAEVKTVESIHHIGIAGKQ

fHbp m001822 = molecular target: T2, fHbp m001822 (Neisseria meningitidis, engineered fHbp …, point mutant)
T2 chain: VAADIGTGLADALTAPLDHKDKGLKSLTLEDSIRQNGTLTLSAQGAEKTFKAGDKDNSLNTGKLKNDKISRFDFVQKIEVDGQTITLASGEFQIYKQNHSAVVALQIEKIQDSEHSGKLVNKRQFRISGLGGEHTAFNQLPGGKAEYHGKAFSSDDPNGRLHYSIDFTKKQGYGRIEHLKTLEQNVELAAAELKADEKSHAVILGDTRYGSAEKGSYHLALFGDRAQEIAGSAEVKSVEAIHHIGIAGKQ

fHbp m001832 = molecular target: T3, fHbp m001832 (Neisseria meningitidis fHbp v3.28, …, chimera)
T3 chain: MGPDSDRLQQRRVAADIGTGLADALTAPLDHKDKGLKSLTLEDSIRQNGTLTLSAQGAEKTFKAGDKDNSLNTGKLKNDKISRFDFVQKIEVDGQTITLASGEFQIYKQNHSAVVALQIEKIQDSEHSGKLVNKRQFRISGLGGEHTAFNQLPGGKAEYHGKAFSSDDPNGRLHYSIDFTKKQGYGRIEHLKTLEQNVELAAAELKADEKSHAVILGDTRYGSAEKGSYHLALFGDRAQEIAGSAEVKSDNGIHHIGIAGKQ

fHbp m002334 = molecular target: T4, fHbp m002334 (Neisseria meningitidis, engineered fHbp …, chimera)
T4 chain: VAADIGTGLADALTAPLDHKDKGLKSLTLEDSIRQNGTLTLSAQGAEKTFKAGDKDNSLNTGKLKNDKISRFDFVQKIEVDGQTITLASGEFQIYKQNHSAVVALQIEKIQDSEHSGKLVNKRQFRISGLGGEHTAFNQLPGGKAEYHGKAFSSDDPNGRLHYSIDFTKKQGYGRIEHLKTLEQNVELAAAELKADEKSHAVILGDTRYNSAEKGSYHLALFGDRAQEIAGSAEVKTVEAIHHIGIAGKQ

B1: mAb 1E6 (human) (antibody, V domains shown)
VH: EVQLVQSGAEVKKPGSSVKVSCKASGGTVIDYPITWVRQAPGQGLEWVGGFVPLFRTSNYGQKFQGRVTITADKSTSTASMELNSLTSEDTAIYYCARGDTAMGPFDYWGQGTLVTVSS
VL: SYVLTQPPSLSVAPGKTATLTCGGNNIAGKTVHWYQQRPGQAPVLVISYDSDRPSGIPERFSGSNSANTATLTISRVEAGDEADYYCQVWDRNSDHWVFGGGTKLTVL
notes: source: Expi293, purified (MabSelect SuRe, SEC); copies: 2 + 2
Kd (fHbp m001767): 0.131 nM | koff (fHbp m001767): 4.68e-05 s⁻¹ | kon (fHbp m001767): 358200 ± 2140 M⁻¹ s⁻¹ | Kd (fHbp m001822): 0.455 nM | koff (fHbp m001822): 0.00017 s⁻¹ | kon (fHbp m001822): 372900 ± 2610 M⁻¹ s⁻¹ | Kd (fHbp m001832): 0.435 nM | koff (fHbp m001832): 0.00016 s⁻¹ | kon (fHbp m001832): 367800 ± 1240 M⁻¹ s⁻¹ | Kd (fHbp m002334): 0.844 nM | koff (fHbp m002334): 0.000101 s⁻¹ | kon (fHbp m002334): 119300 ± 930 M⁻¹ s⁻¹
